Test results taken from the supplement of paper PMC10266784.

B1: library; numbered along this chain (parent)
chain: MAAAAAAAAEQQSSNGPVKKSMREKAVERRSVNKEHNSNFKAGYIPIDEDRLHKTGLRGRKGNLAICVIILLFILAVINLIITLVIWAVIRIGPNGCDSMEFHESGLLRFKQVSDMGVIHPLYKSTVGGRRNENLVITGNNQPIVFQQGTTKLSVENNKTSITSDIGMQFFDPRTQNILFSTDYETHEFHLPSGVKSLNVQKASTERITSNATSDLNIKVDGRAIVRGNEGVFIMGKTIEFHMGGNMELKAENSIILNGSVMVSTTRLPSSSSGDQLGSGDWVRYKLCMCADGTLFKVQVTSQNMGCQISDNPCGNTH

Variants of: B1
Assay: SGCB cell-surface expression functional score (HA stain, bin4 vs bin1, normalised to synonymous) (log10 ratio); higher = more cell-surface SGCB (functional)
Experimental: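 Deep mutational scan of full-length human SGCB (YFP-SGCB-HA, NNN codon sublibraries A-F) delivered by lentivirus at low MOI into ADG-HEK293 cells stably expressing SGCA, SGCD and SGCG. YFP-positive cells were stained for surface HA on unpermeabilized cells and FACS-sorted into bins. The functional score is log10(frequency in high bin 4 / frequency in low bin 1), normalised per chunk so that synonymous variants have mean 0 and SD 0.5. Scores are the median over codons and over duplicate biological replicates; scores below -0.5 are called non-functional. Scale: negative means deleterious.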

SGCB cell-surface expression functional score (log10): each site, then its substitutions
A3: V 0.12, R 0.15, T 0.17, E 0.2, F 0.22, Q 0.11, P 0.42, I -0.02, H 0.3, G 0.02, L -0.02, W 0.1, S -0.23, K 0.06, N 0.29, M 0.11, D 0.14, Y 0.27, C -0.24
A4: V -0.06, S 0.05, Y -0.14, T 0.36, K -0.03, P 0.44, E -0.43, M 0.19, C 0.4, D 0.21, R -0.11, W -0.07, N -0.48, L 0.45, F -0.21, G 0.26, Q -0.48, I 0.3, H 0.44
A8: V 0.43, C 0.27, P 0.35, W 1.01, S 0.05, I 0.15, Q -0.13, E 0.48, L -0.18, Y 0.51, T 0.33, N 0.12, K 0.32, R 0.09, G 0.3, H 0.25, D 0.14, F -0.02, M -0.04
A5: T 0.22, P -0.19, W 0.56, D -0.01, V 0.01, R -0.2, G 0.2, K 0.07, L 0.24, Y 0.39, S 0.1, Q 0.33, M 0.25, E -0.03, N -0.07, C 0.11, I 0.29, H 0.12, F 0.61
A6: N 0.26, G 0.15, W -0.46, L -0.21, I 0.36, M 0.13, Q 0.69, P 0.11, S 0.25, K -0.2, C -0.11, D 0.24, F 0.37, R 0, H -0.23, Y 0.61, E -0.14, T 0.07, V 0.22
Q11: F 0.07, A -0.04, E 0.17, D 0.04, C 0.65, G 0.64
A7: L 0.13, C 0.18, K 0.48, N 0.06, I 0.29, G 0.2, V 0.16, H -0.54, Y 0.05, R 0.24, E -0.36, F 0.02, M 0.23, D 0.19, P 0.29, S -0.09, T 0.27, Q 0.41, W 0.57
A2: W -0.4, V 0.12, N 0.38, S 0.14, Q 0.19, T 0.11, Y 0.14, P 0.24, R 0.03
E10: S 0.03, R 0.14, F -0.46, I 0.41, M -0.03, N 0.39, D 0.45, L 0.02, K 0.18, V -0.1, G 0.28, Q 0.15, A 0.17, P 0.05, W -0.16, C 0.47, Y 0.17, H 0.08, T 0.27
A9: N -0.39, D 0.38, E 0.28, K 0.19, H 0.18, T 0.39, R 0.3, Y 0.45, L 0.19, S 0.12, V 0.15, P 0.17, Q 0.46, M 0.67, C 0.54, W -0.24, G 0.37, F 0.04, I 0.35
